Laboratory results from patent US20150125449A1 (published 2015).

Experiments:
[1] = target: T1, Her2 on the surface of Her2-expressing cell lines (human, UniProt P04626 23-1255); test: flow cytometry, SKOV3 cells
T1 construct: whole, on cells; The cell line of each value is named under assay; also called ErbB2; Her2 receptor

[2] = target: T1, Her2 on the surface of Her2-expressing …; test: flow cytometry, MDA-MB-231 cells
[3] = target: Recombinant human HER2 (human, UniProt P04626 23-652); test: SPR, antibody captured on anti-human IgG, recombinant human HER2 as analyte, 1:1 Langmuir; average, n 4
[4] = target: T1, Her2 on the surface of Her2-expressing …; test: flow cytometry, SKBR3 cells
[5] = target: T1, Her2 on the surface of Her2-expressing …; test: flow cytometry, SKOV3 cells; remark: listed apart in the source

B1: OA2-Fab-Her2 (antibody)
chain 1: not shown
chain 2: not shown
chain 3: EPKSSDKTHTCPPCPAPELLGGPSVFLFPPKPKDTLMISRTPEVTCVVVDVSHEDPEVKFNWYVDGVEVHNAKTKPREEQYNSTYRVVSVLTVLHQDWLNGKEYKCKVSNKALPAPIEKTISKAKGQPREPQVYVYPPSRDELTKNQVSLTCLVKGFYPSDIAVEWESNGQPENNYKTTPPVLDSDGSFALVSKLTVDKSRWQQGNVFSCSVMHEALHNHYTQKSLSLSPGK
In the case of B1, the Bmax [1] is reported as 7070, the Kd [1] is reported as 4.72 nM and the Bmax [2] is reported as 412. For the same binder, the Kd [2] was 9.97 nM, the Kd [3] was 0.435 nM and the koff [3] was 0.000131 s⁻¹. It also gave a kon [3] of 313000 M⁻¹ s⁻¹, a Bmax [4] of 64800 and a Kd [4] of 10.8 nM.

B2: OA4-scFv-BID2 (antibody)
chain 1: QVQLVQSGAEVKKPGESLKISCKGSGYSFTSYWIAWVRQMPGKGLEYMGLIYPGDSDTKYSPSFQGQVTISVDKSVSTAYLQWSSLKPSDSAVYFCARHDVGYCTDRTCAKWPEWLGVWGQGTLVTVSSGGGGSSGGGSGGGGSQSVLTQPPSVSAAPGQKVTISCSGSSSNIGNNYVSWYQQLPGTAPKLLIYDHTNRPAGVPDRFSGSKSGTSASLAISGFRSEDEADYYCASWDYTLSGWVFGGGTKLTVLGAAEPKSSDKTHTCPPCPAPELLGGPSVFLFPPKPKDTLMISRTPEVTCVVVDVSHEDPEVKFNWYVDGVEVHNAKTKPREEQYNSTYRVVSVLTVLHQDWLNGKEYKCKVSNKALPAPIEKTISKAKGQPREPQVYTYPPSRDELTKNQVSLTCLVKGFYPSDIAVEWESNGQPENNYKTTPPVLDSDGSFALVSKLTVDKSRWQQGNVFSCSVMHEALHNHYTQKSLSLSPGK
chain 2: not shown
B2 showed a Bmax [5] of 7950.
